The source of these data is patent publication EP4782465A1.

For test [1], the target named is Human insulin receptor subtype B (human) (UniProt P06213). Nature of the test: cell-based or functional assay.
The target in test [2] is Insulin receptor of C2C12 mouse myoblasts (mouse) (UniProt P15208). Nature of the test: cell-based or functional assay.
Insulin receptor of C2C12 mouse myoblasts (mouse), sequence (P15208 28-1372): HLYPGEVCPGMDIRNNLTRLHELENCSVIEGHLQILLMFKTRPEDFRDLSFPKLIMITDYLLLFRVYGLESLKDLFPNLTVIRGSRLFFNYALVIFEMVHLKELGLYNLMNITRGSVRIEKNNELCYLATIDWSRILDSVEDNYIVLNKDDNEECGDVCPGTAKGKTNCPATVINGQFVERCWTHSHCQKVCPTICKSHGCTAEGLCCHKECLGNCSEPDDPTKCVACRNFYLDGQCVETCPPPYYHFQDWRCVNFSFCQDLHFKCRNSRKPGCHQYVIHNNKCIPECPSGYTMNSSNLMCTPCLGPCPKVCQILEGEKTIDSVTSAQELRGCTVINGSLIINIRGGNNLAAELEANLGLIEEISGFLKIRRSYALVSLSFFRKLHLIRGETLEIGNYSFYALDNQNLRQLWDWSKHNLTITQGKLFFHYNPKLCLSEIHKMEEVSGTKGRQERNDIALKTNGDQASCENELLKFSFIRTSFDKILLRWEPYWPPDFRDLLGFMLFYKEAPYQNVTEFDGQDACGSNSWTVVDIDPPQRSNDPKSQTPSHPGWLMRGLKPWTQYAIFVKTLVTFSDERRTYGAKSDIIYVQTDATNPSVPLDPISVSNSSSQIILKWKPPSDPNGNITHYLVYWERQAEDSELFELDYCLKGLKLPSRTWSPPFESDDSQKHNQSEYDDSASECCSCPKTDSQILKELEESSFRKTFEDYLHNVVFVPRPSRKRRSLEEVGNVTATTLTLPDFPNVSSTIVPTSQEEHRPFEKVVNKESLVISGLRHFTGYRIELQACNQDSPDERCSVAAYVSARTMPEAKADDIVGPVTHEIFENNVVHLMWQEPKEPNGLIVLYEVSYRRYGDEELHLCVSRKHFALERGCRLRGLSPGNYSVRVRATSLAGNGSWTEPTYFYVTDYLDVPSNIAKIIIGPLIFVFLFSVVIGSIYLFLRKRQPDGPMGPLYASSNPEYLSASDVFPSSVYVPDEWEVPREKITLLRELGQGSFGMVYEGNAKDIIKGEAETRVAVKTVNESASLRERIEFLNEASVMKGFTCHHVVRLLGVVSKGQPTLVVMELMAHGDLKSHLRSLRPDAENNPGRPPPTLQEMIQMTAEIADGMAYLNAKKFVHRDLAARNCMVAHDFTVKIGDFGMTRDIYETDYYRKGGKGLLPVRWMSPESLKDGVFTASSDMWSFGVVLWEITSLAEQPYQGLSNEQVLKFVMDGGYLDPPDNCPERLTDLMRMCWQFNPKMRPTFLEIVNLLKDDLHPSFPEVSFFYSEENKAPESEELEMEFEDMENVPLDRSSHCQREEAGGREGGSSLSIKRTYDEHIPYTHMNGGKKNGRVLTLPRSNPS

LY3209590 (Fc fusion) displayed a Human insulin receptor subtype B activity (EC50) in test [1] of 116 nM. The substance also displayed an AKT phosphorylation activity (EC50) in test [2] of 194 nM.
